Source: patent publication US20190071714, “[…] FOR CLOSTRIDIUM […] DETECTION” (McMaster University, published 2019)
Where two headings read alike, the source gives them in different places.

Columns and labels:
thrombin [1] = molecular target: T1, thrombin (Homo sapiens, UniProt P00734;P00734 P00734:328-363,P00734:364-622); assay: EMSA
[2] = molecular target: T2, rGDH (recombinant glutamate dehydrogenase) (Clostridium difficile, UniProt P27346 SEQ:1-421); assay: EMSA; […]; 1x PBS, 150 mM NaCl, 0.02% Tween-20, pH 7.6; […]; conditions: tags: C-terminal His6; expressed in E. coli; Pro-Lab Diagnostics
T2 sequence: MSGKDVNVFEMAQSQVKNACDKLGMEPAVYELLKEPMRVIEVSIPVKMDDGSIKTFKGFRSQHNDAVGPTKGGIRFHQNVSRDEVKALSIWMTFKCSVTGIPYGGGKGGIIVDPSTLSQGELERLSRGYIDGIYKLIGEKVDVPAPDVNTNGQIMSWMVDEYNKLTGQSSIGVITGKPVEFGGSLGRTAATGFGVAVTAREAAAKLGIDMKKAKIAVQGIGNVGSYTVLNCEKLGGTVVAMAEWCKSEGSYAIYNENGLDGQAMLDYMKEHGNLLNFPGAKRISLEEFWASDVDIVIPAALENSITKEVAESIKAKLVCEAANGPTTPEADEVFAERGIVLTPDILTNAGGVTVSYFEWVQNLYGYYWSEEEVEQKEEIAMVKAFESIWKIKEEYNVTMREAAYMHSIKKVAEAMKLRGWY

BSA [3] = molecular target: T3, BSA (UniProt P02769 P02769:25-607); assay: EMSA; 10 nM protein; conditions: tags: Sigma
T3 sequence (P02769 25-607, one chain of several): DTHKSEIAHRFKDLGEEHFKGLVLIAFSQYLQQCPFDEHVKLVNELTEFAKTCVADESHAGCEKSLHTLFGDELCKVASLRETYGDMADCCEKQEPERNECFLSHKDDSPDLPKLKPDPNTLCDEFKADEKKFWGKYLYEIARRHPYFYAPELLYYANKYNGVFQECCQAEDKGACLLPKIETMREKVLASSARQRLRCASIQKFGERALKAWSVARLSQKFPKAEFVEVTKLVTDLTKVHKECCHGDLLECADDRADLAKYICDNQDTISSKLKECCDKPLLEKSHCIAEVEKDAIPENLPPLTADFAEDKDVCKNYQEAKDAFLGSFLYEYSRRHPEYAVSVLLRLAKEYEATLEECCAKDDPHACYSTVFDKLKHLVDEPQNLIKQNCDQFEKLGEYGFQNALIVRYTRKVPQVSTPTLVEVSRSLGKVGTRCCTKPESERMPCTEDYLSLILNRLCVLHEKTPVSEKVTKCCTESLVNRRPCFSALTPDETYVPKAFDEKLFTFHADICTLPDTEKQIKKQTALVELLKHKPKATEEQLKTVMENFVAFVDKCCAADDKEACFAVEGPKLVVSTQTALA
Experimental: The truncated aptamer, anti-GDH-T1, was then radioactively labeled at the 5′ end and tested for binding to the rGDH target by EMSA assays.^{39,40} A typical image of an EMSA result is shown in FIG. 3A. It was observed that the electrophoretic mobility of the protein-aptamer complex was typically less than that of the free aptamer. The fractional saturation of bound aptamer was calculated as a function of rGDH concentration (FIG. 3B). […] The specificity was also tested by EMSA. No obvious band was observed when using proteins such as BSA, thrombin and IgG (FIG. 8).
Binding reactions were performed in 20 μL of 1× binding buffer containing 3 nM 32P-labeled anti-GDH1-T1 aptamer and various concentrations of rGDH (0 to 1000 nM). After incubation for 30 min, the reaction mixtures were spiked with 6× loading buffer, and then loaded into the wells of a nondenaturing polyacrylamide gel (8%) at 4° C. Visualization of DNA bands was done using a Typhoon 9200 imager and the resulting bands were quantified with ImageQuant software.

BSA [4] = molecular target: T3, BSA; assay: RGO fluorescence sensor, 300 nM protein, no significant response; conditions: tags: Sigma
Experimental: The detection limit (defined as 3σ/slope, with a being the standard deviation of the blank samples) of the sensor was determined to be 1 nM (FIG. 5A). The selectivity of the aptamer-graphene biosensing system was also evaluated by using non-target proteins (BSA, thrombin, IgG, TcdA and TcdB).
In a typical assay, 20 μL of 5× binding buffer (5×PBS, containing 750 mM NaCl and 0.1% Tween-20, pH 7.6), 2 μL of FAM-labeled (5′ end) aptamer probe (7 μM), 30 μL of RGO solution (100 μg/mL) and 48 μL of water were first mixed and incubated in a micro-centrifuge tube for 30 min. Then, 10 μL of 1% BSA was added to block the surface. After incubating for 20 min, 5 μL of nGDH with different dilutions was added to the mixture and time-dependent fluorescence emission measurements were performed at λₑₓ/λₑₘ=494/518 nm. The emission intensity obtained at a reaction time of 60 min was plotted against nGDH concentration to obtain a limit of detection. A similar experiment was carried out using non-target proteins (BSA, human thrombin, human IgG, TcdA and TcdB from C. difficile) to evaluate aptamer selectivity.

thrombin [5] = molecular target: T1, thrombin
TcdB (toxin B) = TcdB (toxin B) (Clostridium difficile, UniProt P18177 SEQ:2-2366)
TcdA (toxin A) = TcdA (toxin A) (Clostridium difficile, UniProt P16154 SEQ:1-2710)
Sequence of TcdA (toxin A) (P16154 whole entry): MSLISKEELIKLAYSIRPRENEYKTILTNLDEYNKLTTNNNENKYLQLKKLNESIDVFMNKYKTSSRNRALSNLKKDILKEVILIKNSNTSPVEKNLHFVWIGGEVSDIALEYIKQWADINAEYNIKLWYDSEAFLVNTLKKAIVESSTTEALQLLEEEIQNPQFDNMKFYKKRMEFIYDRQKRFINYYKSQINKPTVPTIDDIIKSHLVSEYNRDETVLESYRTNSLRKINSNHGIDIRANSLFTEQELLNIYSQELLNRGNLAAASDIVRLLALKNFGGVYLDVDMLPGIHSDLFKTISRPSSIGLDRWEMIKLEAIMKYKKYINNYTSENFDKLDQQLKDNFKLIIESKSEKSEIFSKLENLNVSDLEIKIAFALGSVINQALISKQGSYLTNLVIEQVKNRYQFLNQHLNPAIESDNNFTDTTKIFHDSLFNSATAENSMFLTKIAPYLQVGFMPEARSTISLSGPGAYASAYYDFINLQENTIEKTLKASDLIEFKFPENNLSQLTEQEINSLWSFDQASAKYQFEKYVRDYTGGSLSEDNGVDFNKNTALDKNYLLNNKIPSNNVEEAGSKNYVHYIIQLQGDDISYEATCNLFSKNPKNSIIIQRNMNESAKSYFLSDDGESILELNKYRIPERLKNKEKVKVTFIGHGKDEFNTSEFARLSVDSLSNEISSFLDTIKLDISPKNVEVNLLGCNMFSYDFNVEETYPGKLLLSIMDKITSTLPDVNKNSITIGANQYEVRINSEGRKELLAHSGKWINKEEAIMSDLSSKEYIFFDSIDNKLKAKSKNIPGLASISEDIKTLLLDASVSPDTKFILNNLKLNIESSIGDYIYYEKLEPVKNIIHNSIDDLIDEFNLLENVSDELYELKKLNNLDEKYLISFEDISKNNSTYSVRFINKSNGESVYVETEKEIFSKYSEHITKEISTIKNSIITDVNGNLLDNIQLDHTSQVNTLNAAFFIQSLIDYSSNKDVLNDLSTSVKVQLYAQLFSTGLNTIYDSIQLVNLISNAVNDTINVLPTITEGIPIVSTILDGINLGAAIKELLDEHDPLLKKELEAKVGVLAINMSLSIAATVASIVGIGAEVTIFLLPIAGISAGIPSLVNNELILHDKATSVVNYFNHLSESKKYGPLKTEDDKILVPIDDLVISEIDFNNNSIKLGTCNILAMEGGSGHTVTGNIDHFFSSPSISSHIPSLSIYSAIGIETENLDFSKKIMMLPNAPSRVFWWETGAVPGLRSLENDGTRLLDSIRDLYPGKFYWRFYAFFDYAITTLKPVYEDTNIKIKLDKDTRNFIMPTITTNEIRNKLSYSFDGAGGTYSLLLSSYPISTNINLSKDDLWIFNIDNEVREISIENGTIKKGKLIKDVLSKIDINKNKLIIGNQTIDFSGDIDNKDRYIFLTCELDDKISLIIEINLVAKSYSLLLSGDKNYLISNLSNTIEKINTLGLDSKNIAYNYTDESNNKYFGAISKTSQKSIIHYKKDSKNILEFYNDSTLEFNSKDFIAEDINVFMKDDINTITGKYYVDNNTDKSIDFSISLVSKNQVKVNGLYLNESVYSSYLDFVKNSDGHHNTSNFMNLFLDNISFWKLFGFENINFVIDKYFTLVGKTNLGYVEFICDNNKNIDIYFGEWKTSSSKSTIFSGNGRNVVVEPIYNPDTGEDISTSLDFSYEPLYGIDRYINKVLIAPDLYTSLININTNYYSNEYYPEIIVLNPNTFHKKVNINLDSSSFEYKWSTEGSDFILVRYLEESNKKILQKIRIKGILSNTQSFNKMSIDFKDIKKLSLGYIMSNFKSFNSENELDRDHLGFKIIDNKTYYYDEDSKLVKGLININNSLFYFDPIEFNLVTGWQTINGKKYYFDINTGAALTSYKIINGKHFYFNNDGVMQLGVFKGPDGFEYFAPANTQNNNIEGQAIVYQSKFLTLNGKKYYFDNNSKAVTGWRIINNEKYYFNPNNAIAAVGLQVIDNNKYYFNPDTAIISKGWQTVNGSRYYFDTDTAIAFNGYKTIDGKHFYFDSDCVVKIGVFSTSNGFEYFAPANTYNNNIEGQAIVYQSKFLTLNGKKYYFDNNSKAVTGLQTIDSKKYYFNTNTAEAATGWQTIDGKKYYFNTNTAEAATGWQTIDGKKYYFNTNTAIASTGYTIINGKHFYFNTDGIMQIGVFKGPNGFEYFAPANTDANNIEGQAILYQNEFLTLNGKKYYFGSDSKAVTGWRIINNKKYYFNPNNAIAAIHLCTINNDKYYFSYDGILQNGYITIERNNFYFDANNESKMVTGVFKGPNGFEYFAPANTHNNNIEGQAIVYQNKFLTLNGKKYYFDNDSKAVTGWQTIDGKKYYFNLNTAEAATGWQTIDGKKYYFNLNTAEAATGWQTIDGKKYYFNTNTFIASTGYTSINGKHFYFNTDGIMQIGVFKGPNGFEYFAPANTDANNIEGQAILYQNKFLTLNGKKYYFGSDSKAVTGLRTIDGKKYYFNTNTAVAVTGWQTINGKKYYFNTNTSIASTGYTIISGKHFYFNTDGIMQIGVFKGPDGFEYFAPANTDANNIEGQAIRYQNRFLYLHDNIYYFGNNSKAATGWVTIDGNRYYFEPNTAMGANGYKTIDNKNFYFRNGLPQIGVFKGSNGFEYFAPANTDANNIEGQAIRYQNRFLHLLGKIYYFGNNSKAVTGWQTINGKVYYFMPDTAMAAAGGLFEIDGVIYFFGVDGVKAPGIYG

[6] = molecular target: T2, rGDH (recombinant glutamate …); assay: pulldown; […]; PBS pH 7.6, room temperature; conditions: tags: C-terminal His6; expressed in E. coli; Pro-Lab Diagnostics
[7] = molecular target: T2, rGDH (recombinant glutamate …); assay: pulldown; 20 nM DNA, rGDH beads; conditions: tags: C-terminal His6; expressed in E. coli; Pro-Lab Diagnostics
[8] = molecular target: T2, rGDH (recombinant glutamate …); assay: pulldown; conditions: tags: C-terminal His6; expressed in E. coli; Pro-Lab Diagnostics
[9] = molecular target: T2, rGDH (recombinant glutamate …); assay: pulldown; […]; 1x PBS, 150 mM NaCl, 0.02% Tween-20, pH 7.6, room temperature; conditions: tags: C-terminal His6; expressed in E. coli; Pro-Lab Diagnostics
[10] = molecular target: T2, rGDH (recombinant glutamate …); assay: pulldown; 20 nM DNA, rGDH beads; decreased; conditions: tags: C-terminal His6; expressed in E. coli; Pro-Lab Diagnostics

B1: anti-G1-T1 (ssDNA)
DNA: TAGGAGGAGGTATTTAGTGCCAAGCCATCTCAAACGACGTCTGAGTCGCACTGCTCCTG
Thrombin [1]
  binding result: no binding
[2]
  Kd: 4.5 nM
BSA [3]
  binding result: no binding

B2: FAM-anti-GDH1-T1 (ssDNA)
DNA: B1 DNA
BSA [4]
  binding result: no binding
Thrombin [5]
  binding result: no binding
TcdB (toxin B)
  binding result: no binding
TcdA (toxin A)
  binding result: no binding

B3: anti-G3 (anti-GDH3) (ssDNA)
DNA: CAGGTCCATCGAGTGGTAGGATGCAGCGGACAGTGTGGGACCATCGCTGCGGATGTATGAATCGCACTGCTCCTGAACGTAC
[6]
  Kd: 5.6 nM

## TAGTGCCAAGCCATCTCAAACGACGTCTGAGTCGCACTG (ssDNA) [anti-G1-T7]
[7]
  binding result: no binding

## AGGTATTTAGTGCCAAGCCATCTCAAACGACGTCTGAGTCGCACTGCT (ssDNA) [anti-G1-T4]
[8]
  binding result: binds

B4: anti-G1 (anti-GDH1) (ssDNA)
DNA: CAGGTCCATCGAGTGGTAGGAGGAGGTATTTAGTGCCAAGCCATCTCAAACGACGTCTGAGTCGCACTGCTCCTGAACGTAC
[9]
  Kd: 3.1 nM

B5: anti-G1-T3 (ssDNA)
DNA: AGGTATTTAGTGCCAAGCCATCTCAAACGACGTCTGAGTCGCACTGCTCCTG
[10]
  binding result: binds

## AGGTATTTAGTGCCAAGCCATCGTCGCACTGCTCCTG (ssDNA) [anti-G1-T8]
[7]
  binding result: no binding

## AGCCATCTCAAACGACGTCTGAGTCGCA (ssDNA) [anti-G1-T6]
[7]
  binding result: no binding

B6: anti-G7 (anti-GDH7) (ssDNA)
DNA: CAGGTCCATCGAGTGGTAGGACCCAACCCACGATGCGCAAGAGGAATGCAGCCTACCAGCATCGCACTGCTCCTGAACGTAC
[6]
  Kd: 4.6 nM
